Several values for one entry are separate records, joined by “and”; a condition that tells them apart may be missing. Equal values may be shown once. No end group written: not given here.
T1: MPP5 PDZ (human, UniProt Q8N3R9 238-336)
T1 construct: PDZ domain of human MPP5 (PALS1), residues 238-336, numbering of the full-length human protein; […]; Labelled on amines with RED-NHS dye for MST; also called PALS1 PDZ; not shown: GST, N-terminal, cleaved
T1 sequence (looked up): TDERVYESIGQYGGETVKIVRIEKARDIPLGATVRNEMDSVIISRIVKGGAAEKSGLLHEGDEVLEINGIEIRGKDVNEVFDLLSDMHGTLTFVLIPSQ

T2: LNX2 PDZ2 (human, UniProt Q8N448 334-426)
T2 construct: second PDZ domain of human LNX2, residues 334-426, numbering of the full-length human protein; […]; Labelled on amines with RED-NHS dye for MST; also called LNX2-2; not shown: His tag, N-terminal, cleaved
T2 sequence (looked up): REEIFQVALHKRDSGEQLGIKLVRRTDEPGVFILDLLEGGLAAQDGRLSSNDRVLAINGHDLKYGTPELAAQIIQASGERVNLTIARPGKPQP

T3: MLLT4 PDZ (human, UniProt P55196 1002-1095)
T3 construct: PDZ domain of human MLLT4 (Afadin); the residues named in the structure (1014-1022, 1071) fit 1002-1095; also called Afadin PDZ; not shown: His tag, N-terminal, cleaved; MBP, N-terminal, cleaved
T3 sequence (looked up): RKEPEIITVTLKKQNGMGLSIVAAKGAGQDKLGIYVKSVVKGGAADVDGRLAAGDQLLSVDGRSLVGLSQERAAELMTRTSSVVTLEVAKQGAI

B1: MLLT4-PBM: MLLT4-PDZ prepared with an excess of protein E PBM peptide (protein)
chain: RKEPEIITVTLKKQNGMGLSIVAAKGAGQDKLGIYVKSVVKGGAADVDGRLAAGDQLLSVDGRSLVGLSQERAAELMTRTSSVVTLEVAKQGAI
modifications: left off: His tag, N-terminal, cleaved | MBP, N-terminal, cleaved
notes: MLLT4-PDZ prepared with an excess of protein E PBM peptide
B2: ZO-1 PDZ2 (domain or fragment, human, UniProt Q07157 184-264, looked up)
chain: PTKVTLVKSRKNEEYGLRLASHIFVKEISQDSLAARDGNIQEGDVVLKINGTVTENMSLTDAKTLIERSKGKLKMVVQRDE
notes: second PDZ domain of human ZO-1 (TJP1), residues 184-264, numbering of the full-length human protein; […]; Labelled on amines with RED-NHS dye for MST; also called TJP1 PDZ2; ZO-1-2
B3: ZO-1: PDZ2 domain of ZO-1, residues 184-264, at 1 mg/mL (protein)
chain: PTKVTLVKSRKNEEYGLRLASHIFVKEISQDSLAARDGNIQEGDVVLKINGTVTENMSLTDAKTLIERSKGKLKMVVQRDE
modifications: left off: His tag, N-terminal, state not stated
notes: PDZ2 domain of ZO-1, residues 184-264, at 1 mg/mL
B4: C-terminal SARS-CoV-2-E PBM peptide (peptide)
peptide: NLNSSRVPDLLV
notes: also called SARS-CoV-2 WT; SARS-CoV-2 peptide E

Key:
GST-PDZ ZO1 = assay: GST pull-down, GST-PDZ ZO1; type: binding, human; details: HEK293 cell lysates; 2 h at 4°C with glutathione resins; anti-GFP Western blot
Experimental: (§1) To investigate whether the five PDZ domains can interact with the full-length E protein and in a PBM-dependent manner, glutathione S-transferase (GST) pull-down assays were performed with the purified GST-tagged PDZ domains of ZO-1, LNX2, PARD3, MLLT4, and MPP5 and the lysates of HEK293 cells overexpressing constructs of GFP alone, GFP-tagged wild-type full-length E protein (GFP-E-WT), GFP-tagged full-length E protein with the PBM mutated with glycines (GFP-E-GGGG), and GFP-tagged cytoplasmic tail of protein E (last 12 residues; GFP-E last 12 aa) designated 1, 2, 3, and 4 in Figure 2 (Figure 2A). The GFP-tagged construct expression was assessed by examining the fluorescence emitted by the GFP by microscopy and by Western blot on the cell lysates using anti-GFP antibody (Figure 2B). GST alone was used as a negative control. We confirmed by using Ponceau S staining that equal amounts of GST-tagged protein constructs were bound to the GST resin (Figure 2C).
(§2) Glutathione S-transferase alone and its fusion with PDZ ZO1, PDZ LNX2, PDZ MLLT4, PDZ MPP5, and PDZ PARD3 are used as baits and were immobilized on glutathione beads and tested for their ability to pull down GFP alone, GFP-E-WT, GFP-E-GGGG, and GFP-E last 12 aa by Western blot using the anti-GFP antibody. After washing, identical amounts of beads were analyzed for the presence of GFP-tagged proteins. […]

GST-PDZ LNX2 = assay: GST pull-down, GST-PDZ LNX2; type: binding, human; details: HEK293 cell lysates; 2 h at 4°C with glutathione resins; anti-GFP Western blot
Experimental: as §1, §2

GST-PDZ MLLT4 = assay: GST pull-down, GST-PDZ MLLT4; type: binding, human; details: HEK293 cell lysates; 2 h at 4°C with glutathione resins; anti-GFP Western blot
Experimental: as §1, §2

GST-PDZ MPP5 = assay: GST pull-down, GST-PDZ MPP5; type: binding, human; details: HEK293 cell lysates; 2 h at 4°C with glutathione resins; anti-GFP Western blot
Experimental: as §1, §2

GST-PDZ PARD3 = assay: GST pull-down, GST-PDZ PARD3; type: binding, human; details: HEK293 cell lysates; 2 h at 4°C with glutathione resins; anti-GFP Western blot
Experimental: as §1, §2

GST alone = assay: GST pull-down, GST alone (negative control); type: binding; details: GST alone as bait; HEK293 cell lysates; anti-GFP Western blot
Experimental: as §1, §2

[1] = Analytical ultracentrifugation; type: physicochemical; details: 1 mg/mL, 20°C; for Oligomeric state in solution: AUC; for Oligomeric state in solution / Frictional ratio f/f0 (average) / Molecular weight estimated by analytical ultracentrifugation (AUC) / Peak proportion: pH 7.5; for Frictional ratio f/f0 (average): average over peaks; for Sedimentation coefficient: Tris 50 mM pH 7.5, NaCl 150 mM, TCEP 0.5 mM, 42,000 rpm, MLLT4-PDZ with excess of E PBM peptide
Experimental: ZO-1-PDZ2 and MLLT4-PDZ were prepared at 1 mg/mL. MLLT4-PDZ was prepared with an excess of protein E PBM peptide. Samples were prepared in Tris 50 mM pH 7.5, NaCl 150 mM, and TCEP 0.5 mM. A sample of 400 μl was loaded into 1.2-cm double-sector cells between two sapphire windows. […] Sedimentation profiles were monitored over time by absorbance measurement at 280 nm and by interferometry. The data were analyzed using the continuous size distribution model c(s) of the Sedfit 16.36 software. All distributions were calculated with a floating frictional ratio f/f0 and a maximum entropy regularization procedure with a confidence level of 0.68. The buffer viscosity (η = 0.01031 Poise), the density (ρ = 1.0059), and the partial specific volume of 0.746 for MLLT4 and 0.736 for Z0-1 were estimated at 20°C from the amino acid sequences at 20°C using the software SEDTERP 3.0.3.^3

[2] = molecular target: the molecule itself; assay: AUC; sedimentation velocity, ZO-1-PDZ2 at 1 mg/mL; Tris 50 mM pH 7.5, NaCl 150 mM, TCEP 0.5 mM; 20°C, 42,000 rpm
ZO-1 PDZ2 = molecular target: B2; assay: MST; […]; PBS tween 20 0.05%; room temperature; […]; duplicate; details: both partners purified
MPP5 PDZ = molecular target: T1, MPP5 PDZ; assay: as above; details: both partners purified
LNX2 PDZ2 = molecular target: T2, LNX2 PDZ2; assay: as above; details: both partners purified
PARD3 PDZ3 = molecular target: T4, PARD3 PDZ3 (human, UniProt Q8TEW0 582-685); assay: as above; details: both partners purified
T4 construct: third PDZ domain of human PARD3, residues 582-685, numbering of the full-length human protein; […]; Labelled on amines with RED-NHS dye for MST; also called PARDD3-3; not shown: His tag, N-terminal, cleaved

MLLT4 PDZ = molecular target: T3, MLLT4 PDZ; assay: as above; details: both partners purified

T4 sequence (Q8TEW0 582-685): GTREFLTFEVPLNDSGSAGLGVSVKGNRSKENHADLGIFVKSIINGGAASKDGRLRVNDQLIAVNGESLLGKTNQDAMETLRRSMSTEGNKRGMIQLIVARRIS

Molecule	Oligomeric state in solution [1]	Frictional ratio f/f0 (average) [1]	Sedimentation coefficient ([1]; peak 1)	Molecular weight estimated by analytical ultracentrifugation (AUC) ([1]; peak 1)	Peak proportion ([1]; peak 1)	Sedimentation coefficient ([1]; peak 2)	Molecular weight estimated by analytical ultracentrifugation (AUC) ([1]; peak 2)	Peak proportion ([1]; peak 2)	Sedimentation coefficient ([1]; peak 3)	Molecular weight estimated by analytical ultracentrifugation (AUC) ([1]; peak 3)	further results
GFP-E last 12 aa (NLNSSRVPDLLV; also: fused to GFP, attachment end not given here)											GFP-tagged protein in bound fraction (GST-PDZ ZO1): detected in all interactions with GST-PDZ domains; GFP-tagged protein in bound fraction (GST-PDZ LNX2): detected in all interactions with GST-PDZ domains; GFP-tagged protein in bound fraction (GST-PDZ MLLT4): detected in all interactions with GST-PDZ domains; GFP-tagged protein in bound fraction (GST-PDZ MPP5): detected in all interactions with GST-PDZ domains; GFP-tagged protein in bound fraction (GST-PDZ PARD3): detected in all interactions with GST-PDZ domains; GFP-tagged protein in bound fraction (GST alone): not detected
B1	mainly monomeric in solution	1.2	0.5 S	2.8 kDa	25%	1.4 S	12 kDa	65%	2.3 S	26 kDa	Peak proportion ([1]; peak 3): 10%
B2											stoichiometry N [2]: 2 and ~4
B3	one dimeric form and one higher oligomeric state possibly compatible with a tetramer in solution	1.4	2.1 S	26 kDa	49%	2.8 S	40 kDa	49%	3.7 S	60 kDa	
B4											Kd (ZO-1 PDZ2): 15 µM; Kd (MPP5 PDZ): 30 µM; Kd (LNX2 PDZ2): 289 µM; Kd (PARD3 PDZ3): 341 µM; Kd (MLLT4 PDZ): 569 µM
